Kd data for 1 substance are collected here from publication PMC11906611.

Test [1] addresses FruR labelled with NT-647 (wild type, for MST) (Faecalibacterium prausnitzii A2-165). Put plainly: MST.
The target is the same in test [2]. Put plainly: MST. The source holds these as a separate data set.

Where two headings read alike, the source gives them in different places.

Regarding “HPr2, unlabeled (wild type, for MST) (natural protein)”, the dissociation constant (Kd) was 0.00107 µM in test [1] and 0.448 µM in test [2].

By Kd is commonly meant the concentration at which binding is half-saturated. A high value points to a looser complex.
